Test results as given in patent publication US20210309710A1 (DAEWOONG PHARMACEUTICAL, published 2021).

Target: Recombinant human serum albumin (human, UniProt P02768 25-609)
Assay: SPR (BIACORE 3000), recombinant HSA immobilized on CM5 chip
Method: To measure the binding affinities of the ABD-fused insulin analogue proteins for albumin, a surface plasmon resonance (SPR, BIACORE 3000, GE healthcare) analysis method was used. Recombinant human serum albumin was immobilized on a CM5 chip by an amine coupling method, and the ABD or ABD-fused insulin analogues diluted to five or more concentrations were bound thereto, and the affinities thereof for the human serum albumin were measured.

Chain of Recombinant human serum albumin (P02768 25-609 limits assumed): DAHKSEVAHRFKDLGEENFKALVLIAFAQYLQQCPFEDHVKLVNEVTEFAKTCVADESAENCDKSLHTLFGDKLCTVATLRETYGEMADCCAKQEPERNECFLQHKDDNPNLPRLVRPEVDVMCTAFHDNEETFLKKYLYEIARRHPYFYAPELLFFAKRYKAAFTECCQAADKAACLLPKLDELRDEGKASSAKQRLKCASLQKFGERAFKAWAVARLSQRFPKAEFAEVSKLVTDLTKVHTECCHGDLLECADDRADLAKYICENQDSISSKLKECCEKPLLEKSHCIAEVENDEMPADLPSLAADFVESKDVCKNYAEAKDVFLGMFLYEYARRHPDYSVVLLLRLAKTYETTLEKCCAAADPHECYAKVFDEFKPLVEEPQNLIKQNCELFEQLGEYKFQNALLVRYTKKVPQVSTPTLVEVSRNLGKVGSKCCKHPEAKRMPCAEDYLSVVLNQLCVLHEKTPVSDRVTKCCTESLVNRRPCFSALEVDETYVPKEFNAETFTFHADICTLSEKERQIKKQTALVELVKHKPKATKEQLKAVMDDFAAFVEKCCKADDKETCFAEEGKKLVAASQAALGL

Kd: 7.29 pM
koff: 2.41e-05 s⁻¹
kon: 5.93e+06 M⁻¹ s⁻¹
Binder: LAEAKEAANAELDSYGVSDFYKKLIDKAKTVEGVEALKDAILAALP (designed binder) [albumin-binding domain (ABD)]
